From US20240360223A1 (DRAGONFLY THERAPEUTICS, published 2024) come the findings set out here.

Broadly, the EC50 is the midpoint of the concentration-response curve. Usually IC50 stands for the concentration that inhibits the measured activity by half.

Assay [1] has as its target T1, human NKG2D expressed on cells (human, UniProt P26718 1-216).
T1 construct: whole, on cells; also called NKG2D on KHYG-1 cells; NKG2D-positive NK cells and CD8+ T cells
T1 sequence (looked up): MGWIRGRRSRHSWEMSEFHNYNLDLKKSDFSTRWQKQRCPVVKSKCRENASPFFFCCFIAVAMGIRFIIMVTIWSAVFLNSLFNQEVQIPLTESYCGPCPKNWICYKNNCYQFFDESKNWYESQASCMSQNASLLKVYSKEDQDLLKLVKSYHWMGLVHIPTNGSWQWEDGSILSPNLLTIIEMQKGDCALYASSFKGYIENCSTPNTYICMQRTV
Description: flow cytometry on KHYG-1 cells (no CD16), MFI.

In assay [2] the target is T2, human BAFF-R expressed on cells (human, UniProt Q96RJ3 1-184).
T2 construct: Cell surface BAFF-R, endogenous on B cell lines and primary B cells or overexpressed on isogenic CHO cells; also called hBAFF-R; hBAFF-R-CHO
Description: flow cytometry, Rs4;11 cells. For orientation: A flow cytometer gives signals particle by particle.

In assay [3] the target is T2, human BAFF-R expressed on cells. Description: flow cytometry, SUDHL-6 cells.
Assay [4] shares this target. Description: flow cytometry, human BAFF-R+ isogenic CHO. An excerpt: Isogenic cell lines overexpressing human and cynomolgus BAFF-R were developed from CHO cells.
The target is the same in assay [5]. Briefly: flow cytometry, CHO-hBAFF-R cells.
The target is the same in assay [6]. Description: flow cytometry, RL cells.
Assay [7] shares this target. Briefly: flow cytometry, BJAB cells.
The target is the same in assay [8]. Description: flow cytometry, Raji cells.
Assay [9] has the same target. Briefly: flow cytometry, human BAFF-R CHO cells. An excerpt:
Isogenic cell lines overexpressing human and cynomolgus BAFF-R on the backbone of CHO cell line were designed.

For assay [10] the target is unchanged. Briefly: flow cytometry, Jeko-1 cells.
Assay [11] concerns the target T3, cynomolgus monkey BAFF-R expressed on cells (cynomolgus monkey).
T3 construct: whole, on cells; also called cBAFF-R; cynoBAFF-R
Description: flow cytometry, cyno BAFF-R CHO cells.

In assay [12] the target is T2, human BAFF-R expressed on cells. Briefly: flow cytometry, human BAFF-R CHO cells. The source holds these as a separate data set.
Assay [13] shares this target. Description: blocking of BAFF-biotin on hBAFF-R CHO cells, flow cytometry. On the procedure: Briefly, CHO cells expressing human BAFF-R were harvested, washed in cold FACS buffer, and seeded at a density of 100,000 cells per well. Test articles were diluted in FACS buffer, and 50 μL of diluted multispecific binding protein or mAb was added to cells, incubated on ice for 60 minutes, then washed with FACS buffer. […] Cells were incubated with 100 μL of 1:200 streptavidin-PE diluted in FACS buffer and incubated on ice for 30 minutes then washed with FACS buffer. Cells were then incubated in 100 μL of 1:1,000 dilution of live/dead dye in PBS for 15 minutes, then washed with FACS buffer, and fixed. After incubation, cells were washed with FACS buffer and resuspended in FACS buffer for analysis with flow cytometry. Median fluorescent intensity (MFI) of each sample and the secondary-only control was calculated. […] Data were fit to a four-parameter non-linear regression curve using GraphPad Prism.

For assay [14] the target is unchanged. Briefly: flow cytometry, human BAFF-R CHO cells. The source holds these as a separate data set.
For assay [15] the target is unchanged. Description: flow cytometry, BAFF-R CHO cells; isogenic CHO cells; human and cynomolgus not told apart.
For assay [16] the target is unchanged. Description: cell-based or functional assay.
The target is the same in assay [17]. Briefly: blocking of BAFF-biotin on hBAFF-R CHO cells.
Assay [18] deals with T3, cynomolgus monkey BAFF-R expressed on …. Description: flow cytometry, cyno BAFF-R CHO cells. This is another data set of the same source.
Assay [19] deals with T2, human BAFF-R expressed on cells. Description: flow cytometry, BAFF-R-CHO cells.

Residue numbers refer to the chain shown, from its start. Where two headings read alike, the source gives them in different places.

B1: Parental mAb (AB1753) (antibody, V domains shown)
VH: EVQLVQSGGGVVQPGRSLRLSCAASGFTFSSYGMHWVRQAPGKGLEWVAVIWYDASNKYYGDSVKGRFTISRDNSKNTLYLQMNSLRDEDTAVYYCARRFTHLRGQYIEDYGLDVWGQGTTVTVSS
VL: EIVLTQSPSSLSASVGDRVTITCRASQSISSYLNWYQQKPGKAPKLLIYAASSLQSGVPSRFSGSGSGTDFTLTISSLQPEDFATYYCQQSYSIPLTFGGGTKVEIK
notes: also called parental BAFF-R specific antibody
In the case of B1, the binding result in assay [1] is on record as “no binding (tested: about 700 nM)”. Besides, the EC50 came to 0.06 nM in assay [2]; 0.19 nM in assay [3]; 0.39 nM in assay [4]; 0.39 nM in assay [5]; 0.14 nM in [6]; 0.18 nM in [7]. Moreover, the 50% effective concentration (EC50) in [8] was 0.1 nM; in assay [9], 0.4 nM; in assay [10] it was 0.07 nM. In addition, the “Max FOB” value in assay [2] was 3 fold over background; in assay [3], 13 fold over background; in [4], 123 fold over background; in assay [5] it was 123 fold over background; in [6], 6 fold over background; in assay [7], 12 fold over background. The “Max FOB” value in [9] came out at 57 fold over background; in [10] it was 5 fold over background.

B2: AB0369 (bispecific antibody, V domains shown)
VH: B1 VH with G44C, A55G, H102M, Q106L, Y107I, L113M
VL: not shown
notes: also called AB0369-001
B2: the EC50 is greater than 15 nM in [11]; greater than 10 nM in assay [12]; 6.8 nM in [14]; roughly 10 nM in assay [15]; 7.11 nM in [18]; greater than 10 nM in [19]. Also, the concentration for half-maximal inhibition (IC50) in assay [13] was 488 nM; in [17] it was greater than 1000 nM. Also, the “KHYG-A-CD16Av mediated Cytolysis of Ramos cells EC50” value in [16] came to 0.64 nM.
